The IC50 is the midpoint of a concentration-inhibition curve. A high value points to weaker potency in that assay. Broadly, the Kd is the equilibrium constant for the complex coming apart. One may read the koff as a measure of how fast the partners let go of each other. Broadly, the kon is a measure of how fast the partners come together.

A value given as a limit tells only on which side of the number the result lay.

Assay [1] deals with T1, human LAG3 expressed on HEK293 cells (human, UniProt P18627 23-525).
T1 construct: also called hLAG3; HEK293/hLAG3
T1 sequence: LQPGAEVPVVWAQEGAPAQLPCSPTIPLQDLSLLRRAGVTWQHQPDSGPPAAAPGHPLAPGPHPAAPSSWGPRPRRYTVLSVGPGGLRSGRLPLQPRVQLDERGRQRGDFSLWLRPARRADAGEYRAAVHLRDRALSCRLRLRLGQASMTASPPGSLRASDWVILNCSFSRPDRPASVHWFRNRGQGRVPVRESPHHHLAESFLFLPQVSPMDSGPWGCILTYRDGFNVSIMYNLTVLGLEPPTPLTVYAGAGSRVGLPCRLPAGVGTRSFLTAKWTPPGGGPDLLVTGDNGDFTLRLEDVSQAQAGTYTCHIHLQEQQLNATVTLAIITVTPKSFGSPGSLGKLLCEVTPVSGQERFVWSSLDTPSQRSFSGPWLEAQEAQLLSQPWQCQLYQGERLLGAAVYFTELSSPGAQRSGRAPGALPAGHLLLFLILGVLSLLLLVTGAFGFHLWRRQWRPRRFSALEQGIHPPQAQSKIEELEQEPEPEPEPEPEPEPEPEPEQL
In words: cell adherence assay, blocks A20 (mouse MHCII) cells on HEK293-hLAG3. The method, then: Cells were plated into sterile Nunclon™ Delta 96-Well MicroWell™ Black Optical Bottom Plates (Thermo Scientific). The wells from the perimeter of the plate were not included in the assay design to avoid edge effects.
On the day of treatment, all antibodies were serially (1:3) diluted in RPMI media (without FBS or supplements added). The 9-point dilution ranged between 45 pM to 300 nM, with the last dilution point containing no mAb. […] While the plated HEK293-LAG3 cells were incubating with the test or control antibodies, non-adherent B-cells (RAJI or A20) were labeled with Calcein AM using the following procedure. RAJI and A20 suspension cells were harvested and centrifuged at 1,200 rpm for 5 minutes. Cell pellets were resuspended in 1×PBS and counted. Cells were washed with RPMI, and resuspended in RPMI at a concentration of 10⁶ cells per 1 ml. Cells were labeled by adding 5 μL of Calcein AM per 1 ml of cell suspension and incubated for 30 min at 37° C., at 5% CO₂. […] Subsequently, 10 μL of BD Pharmingen Fc Block (0.5 mg/mL) was added per 1 ml of the Calcein AM labeled cells, which were incubated at RT for 10 minutes. The Calcein AM-stained, Fc-blocked RAJI or A20 cells were resuspended in RPMI to a final concentration of 3×10⁶ cells per 1 ml and subsequently used in the adherence assay.
The labeled suspension cells were incubated with the HEK293 monolayer for 1 hour at 37° C., at 5% CO₂.

For assay [2], the target named is T2, recombinant human LAG3 expressed with a C-terminal myc-myc-hexahistidine tag (human, UniProt P18627 29-450).
T2 construct: also called hLAG3-mmh; hLAG3.mmh
In words: SPR, mAb captured, 37 C. The method, then: (§1) The BiaCore sensor surface was derivatized with either a polyclonal rabbit anti-mouse antibody (GE, # BR-1008-38) or with a monoclonal mouse anti-human Fc antibody (GE, # BR-1008-39) to capture approximately 50-85 RUs of anti-LAG3 monoclonal antibodies, expressed with either a mouse Fc or a human Fc, respectively. […] The binding of the LAG3 reagents to captured monoclonal antibodies was monitored for 4 minutes while their dissociation from the antibodies was monitored for 8 minutes in HBST running buffer (0.01 M HEPES pH 7.4, 0.15 M NaCl, 3 mM EDTA, 0.05% v/v Surfactant P20). Experiments were performed at 25° C. and 37° C. Kinetic association (kₐ) and dissociation (kd) rate constants were determined by processing and fitting the data to a 1:1 binding model using Scrubber 2.0c curve fitting software. Binding dissociation equilibrium constants (KD) and dissociative half-lives (t_{1/2}) were then calculated from the kinetic rate constants as: KD (M)=kd/kₐ and t_{1/2} (min)=[ln2/(60*kd)].
(SPR reads the build-up and loss of mass on a sensor chip optically.)

Assay [3] has as its target T3, recombinant human LAG3 expressed with a C-terminal mouse IgG2a mFc tag (human).
T3 construct: Called dimeric; also called hLAG3-mFc; hLAG3 dimer
T3 chain: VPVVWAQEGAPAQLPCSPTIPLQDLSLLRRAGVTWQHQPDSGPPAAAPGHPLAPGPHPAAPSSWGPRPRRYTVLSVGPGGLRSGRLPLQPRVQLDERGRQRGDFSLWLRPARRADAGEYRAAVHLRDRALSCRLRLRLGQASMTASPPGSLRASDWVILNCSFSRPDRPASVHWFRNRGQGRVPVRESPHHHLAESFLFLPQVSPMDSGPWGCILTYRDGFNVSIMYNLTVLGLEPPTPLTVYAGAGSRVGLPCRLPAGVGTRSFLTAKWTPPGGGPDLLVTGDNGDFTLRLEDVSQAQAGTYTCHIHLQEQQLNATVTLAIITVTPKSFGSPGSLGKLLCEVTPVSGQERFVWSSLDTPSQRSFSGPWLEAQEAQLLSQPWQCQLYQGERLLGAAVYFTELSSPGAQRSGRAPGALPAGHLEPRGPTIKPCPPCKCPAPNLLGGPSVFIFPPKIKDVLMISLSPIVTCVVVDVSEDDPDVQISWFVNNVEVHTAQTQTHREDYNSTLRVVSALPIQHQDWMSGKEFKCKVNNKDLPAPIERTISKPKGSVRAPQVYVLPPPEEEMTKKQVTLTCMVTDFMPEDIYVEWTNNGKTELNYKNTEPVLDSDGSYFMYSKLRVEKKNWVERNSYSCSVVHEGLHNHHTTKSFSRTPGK
Nature of the assay: SPR, mAb captured, 37 C. The method, then: as §1

B1: H4sH15482P (antibody, human IgG4 S228P, kappa)
heavy: QVQLVESGGGVVQPGRSLRLSCVASGFTFSSYGMHWVRQAPGKGLEWVAIIWYDGSNKYYADSVKGRFTISRDNSKNTQYLQMNSLRAEDTAVYYCASVATSGDFDYYGMDVWGQGTTVTVSSASTKGPSVFPLAPCSRSTSESTAALGCLVKDYFPEPVTVSWNSGALTSGVHTFPAVLQSSGLYSLSSVVTVPSSSLGTKTYTCNVDHKPSNTKVDKRVESKYGPPCPPCPAPPVAGPSVFLFPPKPKDTLMISRTPEVTCVVVDVSQEDPEVQFNWYVDGVEVHNAKTKPREEQFNSTYRVVSVLTVLHQDWLNGKEYKCKVSNKGLPSSIEKTISKAKGQPREPQVYTLPPSQEEMTKNQVSLTCLVKGFYPSDIAVEWESNGQPENNYKTTPPVLDSDGSFFLYSRLTVDKSRWQEGNVFSCSVMHEALHNHYTQKSLSLSLGK
light: EIVLTQSPATLSLSPGERTTLSCRASQRISTYLAWYQQKPGQAPRLLIYDASKRATGIPARFSGSGSGTGFTLTISSLEPEDFAVYYCQQRSNWPLTFGGGTKVEIKRTVAAPSVFIFPPSDEQLKSGTASVVCLLNNFYPREAKVQWKVDNALQSGNSQESVTEQDSKDSTYSLSSTLTLSKADYEKHKVYACEVTHQGLSSPVTKSFNRGEC
notes: H4sH = modified human IgG4 Fc; also called mAb1
Consider B1, for which it took 3.8 nM to reach half-maximal inhibition in assay [1] (IC50). Further, in assay [2], the equilibrium dissociation constant (Kd) was 1.82 nM and the t1/2 was 0.377 h. For the same molecule, in assay [3], the Kd was found to be 0.0316 nM and the t1/2 came to 1.17 h.

B2: H4H15482P (antibody, human IgG4 S228P, kappa)
heavy: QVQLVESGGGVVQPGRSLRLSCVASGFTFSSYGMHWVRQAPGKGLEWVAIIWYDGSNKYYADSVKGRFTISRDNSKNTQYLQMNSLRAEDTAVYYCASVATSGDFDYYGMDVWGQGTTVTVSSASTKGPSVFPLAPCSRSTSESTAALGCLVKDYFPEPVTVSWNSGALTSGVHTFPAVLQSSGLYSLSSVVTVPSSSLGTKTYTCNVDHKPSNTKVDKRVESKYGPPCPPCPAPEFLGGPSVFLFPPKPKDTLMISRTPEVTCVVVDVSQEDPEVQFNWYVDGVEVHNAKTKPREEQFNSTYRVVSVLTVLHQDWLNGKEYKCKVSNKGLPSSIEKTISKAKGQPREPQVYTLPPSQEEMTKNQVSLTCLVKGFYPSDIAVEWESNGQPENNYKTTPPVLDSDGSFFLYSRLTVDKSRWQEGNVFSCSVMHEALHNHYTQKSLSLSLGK
light: EIVLTQSPATLSLSPGERTTLSCRASQRISTYLAWYQQKPGQAPRLLIYDASKRATGIPARFSGSGSGTGFTLTISSLEPEDFAVYYCQQRSNWPLTFGGGTKVEIKRTVAAPSVFIFPPSDEQLKSGTASVVCLLNNFYPREAKVQWKVDNALQSGNSQESVTEQDSKDSTYSLSSTLTLSKADYEKHKVYACEVTHQGLSSPVTKSFNRGEC
notes: H4H = human IgG4 Fc with S108P
In the case of B2, the half-maximal inhibitory concentration (IC50) in assay [1] was 11 nM. Further, the figures for the dissociation constant Kd in assay [2] and in assay [3] were 1.96 nM and 0.0891 nM, respectively. For the same molecule, the figures for the t1/2 in assay [2] and in assay [3] were 0.337 h and 2.13 h, respectively.

B3: H4sH15498P2 (antibody, V domains shown)
VH: EVQLVESGGGLVQPGGSLRLSCAASGFTFTSYAMTWVRQAPGKGLEWVSDISGSGGRTYYADSVKGRFTISRDNSKNMLYLQMNILRAEDTAVYHCAKGTGQQVDLYNYYYALDVWGQGTTVTVSS
VL: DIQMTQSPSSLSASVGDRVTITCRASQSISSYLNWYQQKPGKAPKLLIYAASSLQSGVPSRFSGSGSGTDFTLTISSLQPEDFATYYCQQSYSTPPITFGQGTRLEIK
notes: H4sH = human IgG4 Fc with 2 or more amino acid changes as disclosed in US20140243504
B3 returned an IC50 in assay [1] of 21 nM. Also, in assay [2], the Kd came to 0.185 nM, the koff was 7.08e-05 s⁻¹, the kon stood at 378000 M⁻¹ s⁻¹ and the t1/2 came out at 2.72 h. In assay [3], the Kd turned out to be 0.0194 nM, the koff was found to be 1e-05 s⁻¹, the kon turned out to be 515000 M⁻¹ s⁻¹ and the t1/2 is ≥ 19.2 h.

B4: H4H15498P2 (antibody, human IgG4, V domains shown)
VH: EVQLVESGGGLVQPGGSLRLSCAASGFTFTSYAMTWVRQAPGKGLEWVSDISGSGGRTYYADSVKGRFTISRDNSKNMLYLQMNILRAEDTAVYHCAKGTGQQVDLYNYYYALDVWGQGTTVTVSS
VL: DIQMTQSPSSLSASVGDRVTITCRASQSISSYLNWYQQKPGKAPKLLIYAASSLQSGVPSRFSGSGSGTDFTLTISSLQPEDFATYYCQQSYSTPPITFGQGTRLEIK
notes: H4H = human IgG4 Fc with S108P hinge mutation
In turn, B4 registered an IC50 in assay [1] of 30 nM. In addition, in assay [2], the dissociation constant Kd is 0.0783 nM, the koff is 2.96e-05 s⁻¹, the kon came out at 381000 M⁻¹ s⁻¹ and the t1/2 was 6.5 h. Further, in assay [3], the Kd was 0.0217 nM, the koff stood at 1e-05 s⁻¹, the association rate constant (kon) worked out at 460000 M⁻¹ s⁻¹ and the t1/2 is ≥ 19.2 h.

B5: H4sH14813N (antibody, human IgG4 S228P, kappa, V domains shown)
VH: QVQLQQWGAGLLKPSETLSLTCAVYGGSFSGYYWNWIRQPPGKGLEWVGEISHRGSTNYNPSLKSRVTISLDTSKNQFSLKLTSVTAADTAVYYCSRDEELEFRFFDYWGQGTLVTVSS
VL: EIVLTQSPATLSLSPGERATLSCRASQSVSSYLAWYQQKPGQAPRLLVYGASNRATGIPARFSGSGSGTDFTLTISSLEPEDFAFYYCQQRSNWPLTFGGGTKVEIKR
notes: H4sH = modified human IgG4 Fc
In the case of B5, the IC50 in assay [1] was determined as 10 nM. In addition, in assay [2], the Kd came to 0.266 nM, the koff is 0.000154 s⁻¹, the kon stood at 578000 M⁻¹ s⁻¹ and the t1/2 came to 1.25 h. For the same molecule, in assay [3], the Kd was found to be 0.0295 nM, the koff worked out at 0.000101 s⁻¹, the kon worked out at 3.42e+06 M⁻¹ s⁻¹ and the t1/2 worked out at 1.91 h.

B6: H4H15479P (antibody, human IgG4, V domains shown)
VH: QVQLQQWGAGLLNPSETLSLTCAVYGGAFSDYYWNWIRQPPGKGLEWIGEINHRGSTNYNPSLKSRVTISVDTSKNQFSLRMSSVTAADAAVYYCARGEDYDIWNGYYQEKWGQGTLVTVSS
VL: EIVLTQSPATLSLSPGERATLSCRASQSISTYLAWYQQKPGQAPRLLIYDASKRATGIPARFSGSGSGTDFTLTISSLEPEDFVVYYCHQRSNWPLTFGGGTKVEIK
Take B6: in assay [1], it took 11 nM to reach half-maximal inhibition (IC50). In assay [2], the Kd worked out at 0.0321 nM, the koff worked out at 4.08e-05 s⁻¹, the kon turned out to be 1.27e+06 M⁻¹ s⁻¹ and the t1/2 turned out to be 4.72 h. In addition, in assay [3], the Kd was determined as 0.00399 nM, the dissociation rate constant (koff) amounted to 1e-05 s⁻¹, the kon is 2.5e+06 M⁻¹ s⁻¹ and the t1/2 is ≥ 19.2 h.

B7: H4H15483P (antibody, human IgG4, V domains shown)
VH: QVQLQQWGAGLLPPSETLSLICAVYGGSFSGYYWSWIRQPPGKGLEWIGEINHRGSTNYNPSLKSRATISVDTSKNQFSLKLSSVTAADTAVYYCSRGEDYYDSSGYSYYFDYWGQGTLVTVSS
VL: EIVLTQSPATLSLSPGERATLSCRASQSVSSYLAWYQQKPGQAPRLLIYDASNRATGIPARFSGSGSGTDFTLTISSLEPEDFAVYYCQQRSNWPLTFGGGTKVEIK
notes: as for B4
For B7, the half-inhibitory concentration (IC50) in assay [1] came out at 16 nM. Further, in assay [2], the Kd was determined as 1.43 nM, the koff turned out to be 0.00111 s⁻¹, the kon is 774000 M⁻¹ s⁻¹ and the t1/2 was determined as 0.173 h. Further, in assay [3], the Kd came out at 0.215 nM, the koff was determined as 0.000298 s⁻¹, the kon came out at 1.38e+06 M⁻¹ s⁻¹ and the t1/2 was determined as 0.647 h.

B8: H4H14813N (antibody, human IgG4, V domains shown)
VH: QVQLQQWGAGLLKPSETLSLTCAVYGGSFSGYYWNWIRQPPGKGLEWVGEISHRGSTNYNPSLKSRVTISLDTSKNQFSLKLTSVTAADTAVYYCSRDEELEFRFFDYWGQGTLVTVSS
VL: EIVLTQSPATLSLSPGERATLSCRASQSVSSYLAWYQQKPGQAPRLLVYGASNRATGIPARFSGSGSGTDFTLTISSLEPEDFAFYYCQQRSNWPLTFGGGTKVEIK
notes: as for B4
B8 gave an IC50 in assay [1] of 10 nM. In assay [2], the Kd was 0.284 nM, the off-rate constant (koff) was 0.000152 s⁻¹, the kon was 535000 M⁻¹ s⁻¹ and the t1/2 came out at 1.27 h. For the same molecule, in assay [3], the dissociation constant (Kd) was determined as 0.0274 nM, the koff was found to be 0.000117 s⁻¹, the kon is 4.27e+06 M⁻¹ s⁻¹ and the t1/2 is 1.65 h.

Values taken from patent US20170101472A1 (Regeneron, published 2017).
